± gives the standard deviation of the averaged measurements.
Experiments:
[1] = tested on: Saccharomyces cerevisiae; experiment: protein stability index of tFT-peptide fusion (C-terminal peptide) (PSI (0-1 scale)); higher = more stable (slower turnover)
Procedure: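 MPS profiling in S. cerevisiae of the tFT-X12 degron library: putative degron peptides plus stable controls, 12 aa, fused to the C-terminus of a sfGFP-mCherry timer. Cells are FACS-sorted into 8 mCherry/sfGFP bins and deep-sequenced. PSI runs from 0 (unstable) to 1 (stable). Backgrounds are wild type, das1Δ and doa10Δ at 30 °C, and wild type, das1Δ, cdc34-1 and cdc53-1 at 37 °C; 2-3 technical replicates each.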

[2] = tested on: Saccharomyces cerevisiae; experiment: as above; conditions: genetic background: wild type; temperature: 30 C
[3] = genetic background: cdc34-1, temperature: 37 C
[4] = genetic background: cdc53-1, temperature: 37 C
[5] = genetic background: das1 deletion, temperature: 30 C
[6] = genetic background: das1 deletion, temperature: 37 C
[7] = genetic background: doa10 deletion, temperature: 30 C
[8] = genetic background: wild type, temperature: 30 C
[9] = genetic background: wild type, temperature: 37 C
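Further: PSI is a weighted mean of sequencing reads over stability bins, variants kept only with over 10 reads, mCherry proximal and sfGFP distal, peptide attached via GGGS linker.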

Row | Sequence | protein stability index [1, 3] | protein stability index [1, 4] | protein stability index [1, 5] | protein stability index [1, 6] | protein stability index [1, 7] | protein stability index [1, 8] | protein stability index [1, 9] | protein stability index [2]
1 | FVSVAGFIVVVV | 0.47 ± 0.018 | 0.488 ± 0.036 | 0.293 ± 0.048 | 0.5341 ± 0.0027 | 0.291 ± 0.013 | 0.28 ± 0.034 | 0.498 ± 0.0068 | 0.4076 ± 0.00077
2 | FVVGFVCSMVWG | 0.0975 ± 0.012 | 0.216 ± 0.024 | 0.0889 ± 0.026 | 0.252 ± 0.0045 | 0.0599 ± 0.0055 | 0.0702 ± 0.019 | 0.2266 ± 0.0022 | 0.144 ± 0.016
3 | FVVHPARYYLVL | 0.558 ± 0.077 | 0.682 ± 0.019 | 0.595 ± 0.023 | 0.664 ± 0.017 | 0.355 ± 0.0048 | 0.385 ± 0.02 | 0.489 ± 0.014 | 0.4265 ± 0.0029
4 | FVVSCLSWVFLF | 0.429 ± 0.0099 | 0.528 ± 0.04 | 0.434 ± 0.032 | 0.5418 ± 0.004 | 0.101 ± 0.022 | 0.114 ± 0.025 | 0.127 ± 0.026 | 0.175 ± 0.024
5 | FVVWKDVLVMVR | 0.132 ± 0.03 | 0.1451 ± 0.00045 | 0.2 ± 0.032 | 0.286 ± 0.0095 | 0.158 ± 0.0054 | 0.192 ± 0.034 | 0.257 ± 0.0093 | 0.298 ± 0.029
6 | FWCVFVFFVCVG | 0.255 ± 0.042 | 0.354 ± 0.006 | 0.258 ± 0.028 | 0.399 ± 0.013 | 0.231 ± 0.0025 | 0.238 ± 0.023 | 0.349 ± 0.017 | 0.275 ± 0.01
7 | FWGRAGVWRLKG | 0.684 ± 0.044 | 0.759 ± 0.019 | 0.651 ± 0.021 | 0.7821 ± 0.0066 | 0.228 ± 0.0067 | 0.276 ± 0.026 | 0.595 ± 0.022 | 0.334 ± 0.025
8 | FWSARAVVWWCW | 0.506 ± 0.036 | 0.554 ± 0.026 | 0.445 ± 0.021 | 0.567 ± 0.011 | 0.449 ± 0.012 | 0.449 ± 0.027 | 0.574 ± 0.039 | 0.477 ± 0.051
9 | FYFRSSFFTICF | 0.36 ± 0.038 | 0.3875 ± 0.0025 | 0.365 ± 0.033 | 0.46 ± 0.0018 | 0.4318 ± 0.0037 | 0.352 ± 0.014 | 0.446 ± 0.017 | 0.398 ± 0.024
10 | FYPLPASIPDFA | 0.695 ± 0.025 | 0.7541 ± 0.0025 | 0.67 ± 0.017 | 0.74197 ± 5.2e-05 | 0.675 ± 0.022 | 0.6686 ± 0.0026 | 0.72 ± 0.011 | 0.7216 ± 0.0018
11 | FYSLVQAWSKAP | 0.721 ± 0.037 | 0.715 ± 0.01 | 0.648 ± 0.012 | 0.727 ± 0.021 | 0.3898 ± 0.0019 | 0.415 ± 0.027 | 0.627 ± 0.018 | 0.501 ± 0.018
12 | GCGWVFWVVDWG | 0.463 ± 0.017 | 0.566 ± 0.0098 | 0.402 ± 0.028 | 0.563 ± 0.0075 | 0.369 ± 0.01 | 0.398 ± 0.027 | 0.539 ± 0.026 | 0.4431 ± 0.0038
13 | GCVMSVCSLAVS | 0.605 ± 0.019 | 0.624 ± 0.0098 | 0.45 ± 0.027 | 0.5659 ± 0.0049 | 0.453 ± 0.025 | 0.458 ± 0.011 | 0.54537 ± 2.2e-05 | 0.486 ± 0.013
14 | GCYWPKTLGILC | 0.546 ± 0.018 | 0.555 ± 0.02 | 0.408 ± 0.021 | 0.568 ± 0.0092 | 0.346 ± 0.0062 | 0.378 ± 0.025 | 0.56 ± 0.032 | 0.465 ± 0.004
15 | GGFLLRGLFLFL | 0.613 ± 0.032 | 0.652 ± 0.016 | 0.55 ± 0.024 | 0.6623 ± 0.0034 | 0.542 ± 0.025 | 0.52 ± 0.022 | 0.63 ± 0.015 | 0.525 ± 0.049
16 | GGHGGRRRKGVG | 0.36 ± 0.017 | 0.45 ± 0.0053 | 0.414 ± 0.019 | 0.435 ± 0.0098 | 0.409 ± 0.0082 | 0.381 ± 0.0054 | 0.439 ± 0.013 | 0.41 ± 0.046
17 | GGMVRSCLWCFV | 0.675 ± 0.034 | 0.755 ± 0.014 | 0.6 ± 0.011 | 0.754 ± 0.029 | 0.322 ± 0.011 | 0.357 ± 0.018 | 0.585 ± 0.0078 | 0.432 ± 0.01
18 | GGSHVWKFYRNF | 0.702 ± 0.09 | 0.7673 ± 0.0011 | 0.662 ± 0.031 | 0.767 ± 0.034 | 0.224 ± 0.0086 | 0.285 ± 0.027 | 0.5523 ± 0.0027 | 0.4225 ± 0.0038
19 | GGVFYVFFVFVG | 0.19 ± 0.016 | 0.39 ± 0.016 | 0.246 ± 0.024 | 0.425 ± 0.013 | 0.128 ± 0.0049 | 0.153 ± 0.023 | 0.258 ± 0.013 | 0.195 ± 0.0076
20 | GGVVAACRGGIG | 0.319 ± 0.011 | 0.3862 ± 0.0037 | 0.351 ± 0.017 | 0.394 ± 0.0076 | 0.361 ± 0.022 | 0.348 ± 0.01 | 0.374 ± 0.0091 | 0.346 ± 0.04

Reference: the supplement of paper PMC10724198
